Sequences and labels used below:
B1: MPK99 (antibody, V domains shown)
VH: EVQLVESGGGLVKPGGSLRLSCAASGFTISGYYMIWIRQSPGKGLEWISDISASSSYTDYADSVKGRFTISRDNGQNTVYLQMNSLRAEDTAVYYCATEQVPSPGPFDLWGQGTLVTVSS
VL: QSVVTQPPSVSGAPGLRVTISCSGTSSNIGRGYDVHWYQQFPGQSPKLLIYRNTNRPSGVPDRFSGFKSGSSASLAIAGLQAEDEADYYCQSYDRSLGGWVFGGGTRLIVL
notes: VH and VL only
B2: MPK129 (antibody, V domains shown)
VH: EVQLVESGGGLVKPGGSLRLSCEASGFSLSGYYMIWIRQAPGKGLEWISSISGSGNYIDYADSVKGRFTISRDNGHNTLYLQMNSLRVEDTAVYYCATEQTPSPGPFDHWGQGTLVTVSS
VL: B1 VL with S2T, L16Q, S23T, R31T, Q44T, F67S, L97V, G98S, R107K, I109T
notes: VH and VL only
B3: MPK126 (antibody, V domains shown)
VH: B1 VH with L18M, F27V, I29L, S40A, S56T, I70V, G75S, V101T
VL: QSVLTQPPSVSGAPGQRVTISCTGSSSNVGAGYDVHWYQQFPGTSPKLLIYRNTNRPSGVPDRFSGFKSGTSASLAITGLEAEDEADYYCQSYDRSLSGWVFGAGTKLTVL
notes: VH and VL only
B4: MPK132-v1 (antibody, V domains shown)
VH: B2 VH with F27I, G53S, G55S, D73H, H76Q, Y95F, D108E, H109L, T114I
VL: B1 VL with L16Q, S21F, S23T, R31T, Q44T, F67S, L97V, G98S, R107K, I109T
notes: VH and VL only
B5: MPK108 (antibody, V domains shown)
VH: EVQLVESGGGLVRPGQSLRLSCTASGFSISGYFMIWVRQAPGKGLEWISYVSASSTYTNYADSVRGRFTTSRDNGQNSLFLQMDSLTAEDTGVYFCAREQTPSPGPFDSWGQGVLVTVSS
VL: QSVLTQPPSLSGAPGQRITISCTGTSSNIGAGYDVHWYQYLPGTAPKLVIYRNTNRPSGVSGRFSGSKSGTSASLAITGLQTEDEADYYCQSYDKKLDGWVFGGGTKLTVL
notes: VH and VL only
B6: MPK127 (antibody, V domains shown)
VH: QVQLVISGGGLVKPGGSLRLSCAASGFRIDSFSLNWVRQAPGKGLEWLASVSASSSYIDYRDSVAGRFTISRDNAQNSLYLQMDTLRAEDTAVYYCARTNGYETGSFDVWGQGTLVTVAS
VL: QSVLTQPPSVSGAPGQRVTISCTGSSSNIGAGYDVHWYQQLPGKAPKLLINANNNRPSGVPDRFSGSNSGTSASLAITGLQAEDEADYYCQSYDKTLSGYVFGLGTTVTVL
notes: VH and VL only
B7: MPK102 (antibody, V domains shown)
VH: EVQLVESGGGLVKPRGSLRLSCAASGFTFSGYFMIWIRQAPGKGLEWVSYISGSSTYTNYADSVKGRFTISRDNGRNTLYLQMNSLRADDTAVYYCATEQTPSPGPFDLWGQGTLVTVSS
VL: QSVLTQPPSVSGAPGQRVTISCTGTSSNIGAGYDVHWYQQFPGTSPKLLIFRNTNRPSGVSDRFSGSKSGSSASLAIAGLQAEDESDYYCQSYDRGLDGWVFGGGTRLTVL
notes: VH and VL only
B8: MPK130 (antibody, V domains shown)
VH: EVQLVESGGGLVKPGGSLTLSCEASGFSISGYYMIWVRQAPGKGLEWVSSISASDTYIDYAVSVQGRFTISRHNTKNSLYLQMSSLRVEDTGVYYCTREKVPSPGPFDCWGQGTLVTVSS
VL: QSVLTQPPSVSGAPGQRITISCTGTSSNIGAGYDVHWYQHLPGAAPRLLIYVNTNRPSGVPDRFSGARSGTSASLAITGLQAEDEADYYCQSYDRSLGGWAFGEGTKVTVL
notes: VH and VL only

Results on eight molecules are retold here after patent US20260028391A1 (HUMABS BIOMED, published 2026).

As a reminder, the Kd is the equilibrium constant for the complex coming apart. Read a low Kd as higher affinity.

Where a chain is given by its changes, count along the chain named.

The target in this assay is RSV fusion glycoprotein (RSV-F) (respiratory syncytial virus). Description: SPR; F protein loaded on streptavidin sensors, mAb in solution. For orientation: In SPR one partner is held on a chip, and binding of the other changes the refractive index at the surface.
Protocol: Binding affinity of mAbs for RSV-F protein, MPV-F D280 protein, and MPV-F N280 F variant protein was assessed using surface plasmon resonance (SPR).
B1: the Kd was determined as 0.15 nM.

B2 came in with a dissociation constant Kd of 0.083 nM.

B3: binding was put at a Kd of 0.001 nM.

For the molecule B4, the Kd was 0.47 nM.

As to B5, binding was put at a Kd of 0.58 nM.

Molecule B6 returned a dissociation constant (Kd) of 1.7 nM. Against the preceding molecule, the Kd is about 2.9-fold higher.

B7 yielded a dissociation constant (Kd) of 0.096 nM.

On to B8, for which the equilibrium dissociation constant (Kd) was found to be 0.016 nM.
